Data published in article PMC9897468.

What was measured:
[1] = target: microtubules (MTs); assay: TIRF-M dwell time on microtubules with EB1
[2] = target: Alexa-647-labeled KIF5AA (mouse) (UniProt P33175); assay: dual color TIRF-M in vitro motility reconstitution
[3] = target: microtubules (MTs); assay: TIRF-M dwell time of diffusing molecules on microtubules

Chain of Alexa-647-labeled KIF5AA (mouse) (P33175 whole entry): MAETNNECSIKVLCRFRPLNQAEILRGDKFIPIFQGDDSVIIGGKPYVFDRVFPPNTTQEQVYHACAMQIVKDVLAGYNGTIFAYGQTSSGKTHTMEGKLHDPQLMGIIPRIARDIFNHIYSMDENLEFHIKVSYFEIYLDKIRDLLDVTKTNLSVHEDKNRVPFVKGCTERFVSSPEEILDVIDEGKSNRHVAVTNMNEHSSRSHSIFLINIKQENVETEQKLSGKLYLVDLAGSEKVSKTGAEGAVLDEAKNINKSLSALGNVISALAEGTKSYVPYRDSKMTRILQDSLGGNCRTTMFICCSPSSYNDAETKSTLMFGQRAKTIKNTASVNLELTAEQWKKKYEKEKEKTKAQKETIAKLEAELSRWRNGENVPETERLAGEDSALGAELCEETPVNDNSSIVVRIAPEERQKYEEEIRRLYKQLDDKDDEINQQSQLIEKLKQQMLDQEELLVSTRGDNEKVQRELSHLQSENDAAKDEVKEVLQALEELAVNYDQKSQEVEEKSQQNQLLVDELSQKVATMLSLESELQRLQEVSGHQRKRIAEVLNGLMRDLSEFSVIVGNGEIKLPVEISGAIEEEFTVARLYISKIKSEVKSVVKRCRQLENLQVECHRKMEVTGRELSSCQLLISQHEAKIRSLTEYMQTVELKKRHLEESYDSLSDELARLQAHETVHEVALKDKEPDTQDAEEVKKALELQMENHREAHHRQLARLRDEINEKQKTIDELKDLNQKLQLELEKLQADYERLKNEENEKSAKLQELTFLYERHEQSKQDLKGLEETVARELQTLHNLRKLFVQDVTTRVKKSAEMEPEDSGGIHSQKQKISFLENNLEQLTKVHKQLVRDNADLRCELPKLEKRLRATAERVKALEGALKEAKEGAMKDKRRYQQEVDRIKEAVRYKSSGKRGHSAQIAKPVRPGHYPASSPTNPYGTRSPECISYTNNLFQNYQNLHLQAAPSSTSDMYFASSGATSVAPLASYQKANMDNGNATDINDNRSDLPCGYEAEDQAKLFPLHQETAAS

- dwell time with EB1 (fast and slow components) [1]: > 60 s
- percent of processive KIF5AA-647 that transports APC–TMR [2]: 25%
- dwell time, long diffusion events [3]: 26.3 s
Substance: adenomatous polyposis coli (APC), full-length, Q61315 1-2845
